Experimental data taken from patent publication US20020077284A1 (WHITEHEAD INSTITUTE FOR BIOMEDICAL RESEARCH, published 2002).
Positions of bridges follow the written chain, without caps; N, C: chain ends. Non-standard residues stand in square brackets, D forms with d.

Key:
[1] = target: T1, HIV-1 envelope protein gp41 subunit (HXB2 envelope), N-helix coiled-coil (HIV-1 (HXB2), UniProt P04578 512-856); assay: cell-based or functional assay
[2] = target: T2, N36 peptide of HIV-1 gp41 (HIV-1); assay: circular dichroism thermal melt at 222 nm; 10 µM C34 peptide + 10 µM N36 in PBS pH 7.0
T2 construct: Synthetic peptide; forms the trimeric N36 coiled-coil of the N36/C34 complex

[3] = target: T1, HIV-1 envelope protein gp41 subunit …; assay: cell-based or functional assay; remark: listed apart in the source
[4] = target: T2, N36 peptide of HIV-1 gp41; assay: circular dichroism thermal melt of the N36/C34 variant complex

Ac-WMEWDAEINNYTSLIHSLIEESQNQQEKNEQELL-NH2 (Position in gp41 numbering) [C34 peptide Arg^633→Ala]
IC50 (nM) cell fusion [1]: 0.76 nM | IC50 (nM) viral entry [1]: 2.6 nM | Tm (apparent melting temperature of the N36/C34 complex) [2]: 65 ° C.

Ac-WMELDREINNYTSLIHSLIEESQNQQEKNEQELL-NH2 [C34 peptide Trp^631→Leu]
IC50 values (nanomolar) for cell fusion [3]: 3.2 nM | IC50 values (nanomolar) for virus entry [3]: 5.3 nM | Tm (apparent melting temperature of the N36/C34 complex) [4]: 50 ° C.

Ac-WMEADREINNYTSLIHSLIEESQNQQEKNEQELL-NH2 (Position in gp41 numbering) [C34 peptide Trp^631→Ala]
decrease in inhibitory activity against wildtype C34 [3]: ~30 fold | Tm (apparent melting temperature of the N36/C34 complex) [2]: 37 ° C.

Ac-WMEVDREINNYTSLIHSLIEESQNQQEKNEQELL-NH2 [C34 peptide Trp^631→Val]
IC50 values (nanomolar) for cell fusion [3]: 4.5 nM | IC50 values (nanomolar) for virus entry [3]: 13 nM | Tm (apparent melting temperature of the N36/C34 complex) [4]: 43 ° C.

Ac-WMEGDREINNYTSLIHSLIEESQNQQEKNEQELL-NH2 (Position in gp41 numbering) [C34 peptide Trp^631→Gly]
IC50 values (nanomolar) for cell fusion [3]: 25 nM | IC50 values (nanomolar) for virus entry [3]: 38 nM | Tm (apparent melting temperature of the N36/C34 complex) [4]: 35 ° C.

Ac-WMEWDREANNYTSLIHSLIEESQNQQEKNEQELL-NH2 (Position in gp41 numbering) [C34 peptide Ile^635→Ala]
IC50 (nM) cell fusion [1]: 0.96 nM | IC50 (nM) viral entry [1]: 4.1 nM | decrease in inhibitory activity against wildtype C34 [3]: ~2 fold | Tm (apparent melting temperature of the N36/C34 complex) [2]: 55 ° C.

Ac-WMEFDREINNYTSLIHSLIEESQNQQEKNEQELL-NH2 [C34 peptide Trp^631→Phe]
IC50 values (nanomolar) for cell fusion [3]: 1.6 nM | IC50 values (nanomolar) for virus entry [3]: 3.61 nM | Tm (apparent melting temperature of the N36/C34 complex) [4]: 59 ° C.

Ac-[dK][dK][dK][dK]G[dA][dC][dE][dL][dL]G[dW][dE][dW][dA][dW][dL][dC][dA][dA]-NH2 (disulfide 7-18 (inferred)) [D10pep5a]
IC50 for inhibition of syncytia formation, against D10pep5 [3]: ~2 fold

Ac-[dK][dK]G[dA][dC][dE][dL][dL]G[dW][dE][dW][dA][dW][dL][dC][dA][dA]-NH2 (disulfide 5-16 (inferred)) [D10pep5]
IC50, syncytia assay [3]: ~6000 nM

Ac-[dK][dK]G[dA][dC][dE][dA][dR][dH][dR][dE][dW][dA][dW][dL][dC][dA][dA]-NH2 (disulfide 5-16 (inferred)) [D10pep1a]
IC50 for inhibition of syncytia formation, against D10pep1 [3]: ~2 fold
